Assay [1] concerns the target T1, human IL4Rα expressed on 293F-IL4Rα cell surface (human, UniProt P24394 26-825).
T1 construct: whole, on cells; also called human IL4Rα-expressing cells; cell surface IL4R
The experiment in a line: cell-based blocking FACS on 293F-IL4Rα cells; blocked ligand biotin human IL4. As to the method: (§1) Then, 1×10⁵ cells per well were incubated in 96 well-plates in 100 μL of serially diluted bispecific antibodies, the positive controls or negative control (starting at 100 nM with a 5-fold serial dilution) in FACS buffer for 40 minutes on ice. […] The plates were washed twice with FACS buffer, and then added and incubated for 40 minutes at 4° C. in dark with 100 μL/well R-Phycoerythrin Streptavidin (1:500 dilution in FACS buffer, Jackson Immunoresearch, Cat #016-110-084). Cells were washed twice and resuspended in FACS buffer. Fluorescence was measured using a Becton Dickinson FACS Canto II-HTS equipment. Data was analyzed using Graphpad Prism and IC₅₀ values were reported.

The target of assay [2] is T2, recombinant human IL4Rα-his (human, UniProt P24394 26-231, limits assumed, biotin-labeled in the capture ELISA).
T2 construct: In-house made; not shown: His tag at the C-terminus
As to the kind of experiment: capture ELISA: antibody captured on anti-human IgG Fc F(ab')2, biotin human IL4Rα-his, SA-HRP. As for the experimental part:
(§2) Briefly, 96-well plates were coated with 2 μg/mL AffiniPure F(ab′)₂ Fragment Goat Anti-Human IgG, Fey fragment specific (Jackson Immuno Research, Cat #109-006-008) in PBS, 100 μL/well, overnight at 4° C. Plates were washed once with wash buffer (PBS+0.05% w/v Tween-20, PBST) and then blocked with 200 μL/well blocking buffer (5% w/v non-fatty milk in PBST) for 2 hours at 37° C. […] After a final wash, plates were incubated with 100 μL/well ELISA substrate TMB (Innoreagents, Cat #TMB-S-002). The reaction was stopped in 10 minutes at 25° C. with 50 μL/well 1M H₂SO₄, and the absorbance was read on a microplate reader using dual wavelength mode with 450 nm for TMB and 630 nm as the reference wavelength. Data was analyzed using Graphpad Prism and EC₅₀ values were reported.

For assay [3], the target named is T2, recombinant human IL4Rα-his. The assay is described as above. As to the method:
as §2
The source holds these as a separate data set.

Assay [4] addresses T1, human IL4Rα expressed on 293F-IL4Rα …. As to the kind of experiment: flow cytometry on 293F-IL4Rα cells, PE anti-human IgG Fc. As to the method: (§3) Cells were washed twice with FACS buffer, and added with 100 μL/well R-Phycoerythrin AffiniPure Goat Anti-Human IgG, Fey fragment specific (1:1000 dilution in FACS buffer, Jackson Immunoresearch, Cat #109-115-098). Following an incubation of 40 minutes at 4° C. in dark, cells were washed three times and resuspended in FACS buffer. Fluorescence was measured using a Becton Dickinson FACS Canto II-HTS equipment. Data was analyzed using Graphpad Prism and EC₅₀ values were reported.

In assay [5] the target is T2, recombinant human IL4Rα-his. The experiment in a line: SPR Biacore T200; antibody captured on anti-human IgG CM5 chip, IL4Rα-his as analyte; 1:1 Langmuir fit. As to the method:
The goat anti-human IgG (GE healthcare, Cat #BR100839, Human Antibody Capture Kit) was covalently linked to a CM5 chip (carboxy methyl dextran coated chip) via primary amines, using a standard amine coupling kit provided by Biacore (GE healthcare, Pittsburgh, PA, USA). Un-reacted moieties on the biosensor surface were blocked with ethanolamine. Then, purified bispecific antibodies of the disclosure at the concentration of 66.67 nM and the controls at 10 μg/mL, were flowed onto the chip at a flow rate of 10 μL/min. Then, serially diluted recombinant human IL4Rα-his (in house made, IL4Rα of SEQ ID NO: 33 with His tag at C-terminus) in HBS EP buffer (provided by Biacore) was flowed onto the chip at a flow rate of 30 μL/min. The association and dissociation curves were fit to a 1:1 Langmuir binding model using BIAcore evaluation software.

Assay [6] addresses T1, human IL4Rα expressed on 293F-IL4Rα …. As to the kind of experiment: flow cytometry on 293F-IL4Rα cells, PE anti-human IgG Fc. As to the method:
as §3
The source holds these as a separate data set.

For assay [7] the target is unchanged. As to the kind of experiment: cell-based blocking FACS on 293F-IL4Rα cells; blocked ligand biotin human IL4. As to the method: as §1
This is another data set of the same source.

Assay [8] deals with T3, biotin-labeled human TSLP-Fc (human, biotin-labeled).
T3 construct: also called TSLP-Fc protein; TSLP-Fc-biotin
The experiment in a line: cell-based blocking FACS: antibody pre-mixed with biotin human TSLP-Fc; blocked binding to cell-surface TSLPR/IL7Ra on HEK293T-TSLPR/IL7R/STAT5-Luc 5C5 cells. As to the method: The cells were prepared following the instruction of lipofectamine 3000 transfection reagent (Thermo Fisher), by transfecting HEK293T cells (ATCC® CRL-11268) with pCMV-T-P plasmids inserted with TSLPR coding sequence between EcoRI and Xba1 sites and pCMV3-SP plasmids inserted with IL7Ra coding sequence between HindIII and Xba1 sites as well as pGL4.52 [luc2P/STAT5RE/Hygro](Promega).
The cells were harvested from cell culture flasks, washed twice and re-suspended in phosphate buffered saline (PBS) containing 2% v/v Fetal Bovine Serum (FACS buffer). […] Cells were washed twice with FACS buffer, and then added and incubated with 100 μL/well R-Phycoerythrin Streptavidin (1:500 dilution in FACS buffer, Jackson Immunoresearch, Cat #016-110-084) for 40 minutes at 4° C. in dark. Cells were washed twice and re-suspended in FACS buffer. Fluorescence was measured using a Becton Dickinson FACS Canto II-HTS equipment. Data was analyzed using Graphpad Prism and IC₅₀ values were reported.

Like-named read-outs stand apart in the source and are kept apart here.

B1: huC2C1A1A1-V15(IgG1) (antibody)
heavy: EVQLVESGGGLVQPGGSLRLSCAASGFTFSTYGMSWVRQAPGKGLVWVATINSNGGSTSYPDSVKGRFTISRDNAKNTLYLQMNSLRAEDTAVYYCARFFRFRNAMDYWGQGTLVTVSSASTKGPSVFPLAPSSKSTSGGTAALGCLVKDYFPEPVTVSWNSGALTSGVHTFPAVLQSSGLYSLSSVVTVPSSSLGTQTYICNVNHKPSNTKVDKKVEPKSCDKTHTCPPCPAPEAQGGPSVFLFPPKPKDTLYITREPEVTCVVVDVSHEDPEVKFNWYVDGVEVHNAKTKPREEQYNSTYRVVSVLTVLHQDWLNGKEYKCQVSNKALPAPIEKTISKAKGQPREPQVYTLPPSRDELTKNQVSLTCLVKGFYPSDIAVEWESNGQPENNYKTTPPVLDSDGSFFLYSKLTVDKSRWQQGNVFSCSVMHEALHNHYTQKSLSLSPG
light: DIQMTQSPSSLSASVGDRVTITCRTSENIYSYLAWYQQKPGKAPKFLVYNAKTLAEGVPSRFSGSGSGTDFTLTISSLQPEDFATYYCQHYYGPPTWTFGQGTKVEIKRTVAAPSVFIFPPSDEQLKSGTASVVCLLNNFYPREAKVQWKVDNALQSGNSQESVTEQDSKDSTYSLSSTLTLSKADYEKHKVYACEVTHQGLSSPVTKSFNRGEC
notes: Monospecific control, full-length IgG1; also called huC2C1A1A-V15(IgG1); anti-IL4R huC2C1A1A1-V15
On to B1, for which the figures for the IC50 in assay [1] and in assay [7] were 0.172 nM and 0.159 nM, respectively. Besides, the EC50 was 0.0201 nM in assay [2], 0.0294 nM in assay [3], roughly 0.162 nM in assay [4] and roughly 0.165 nM in assay [6]. The Kd in assay [5] amounted to 2.07 nM. Moreover, the dissociation rate constant (koff) in assay [5] amounted to 0.000348 s⁻¹. For the same molecule, the kon in assay [5] was determined as 168000 M⁻¹ s⁻¹.

B2: Tezepelumab (antibody, human IgG2, lambda, V domains shown)
VH: QMQLVESGGGVVQPGRSLRLSCAASGFTFRTYGMHWVRQAPGKGLEWVAVIWYDGSNKHYADSVKGRFTITRDNSKNTLNLQMNSLRAEDTAVYYCARAPQWELVHEAFDIWGQGTMVTVSS
VL: SYVLTQPPSVSVAPGQTARITCGGNNLGSKSVHWYQQKPGQAPVLVVYDDSDRPSWIPERFSGSNSGNTATLTISRGEAGDEADYYCQVWDSSSDHVVFGGGTKLTVLG
notes: Positive control, prepared in-house; also called an anti-TSLP antibody
As for B2, the half-inhibitory concentration (IC50) in assay [8] was found to be 1.23 nM.
